Measured values: patent publication US20220154296A1, “USE OF ANTI-PD-1 ANTIBODY IN PREPARATION OF MEDICAMENT FOR TREATING SOLID TUMORS” (Shanghai Junshi Biosciences Co., Ltd., priority 2019, published 2022)

[1] = ESCC patients, 3 mg/kg Q2W, n = 59

Experimental: The anti-PD-1 antibody dose groups for this study: 3 mg/kg dose group at first. After enrollment, subjects will receive treatment every 2 weeks (Q2W) for a 4-week cycle, until disease progression, onset of intolerable toxicity, withdrawal of consent by the subject, no further benefit at the discretion of the investigator, or death.
The planned dose was 3 mg/kg, Q2W.

For “toripalimab: humanized IgG4 anti-PD-1 mAb comprising light and heavy chain amino acid sequences set forth in SEQ ID NOs: 9 and 10 (WO2014206107)”, the “Common TRAE: ALT elevation” value (59 ESCC patients) was 11.9%, the “Common TRAE: AST elevation” value (59 ESCC patients) was 13.6% and the “Common TRAE: anemia” value (59 ESCC patients) was 18.6%. For the same substance, the “Common TRAE: constipation” value (59 ESCC patients) was 10.2%, the “Common TRAE: cough” value (59 ESCC patients) was 16.9% and the “Common TRAE: fatigue” value (59 ESCC patients) was 11.9%. The “Common TRAE: fever” value (59 ESCC patients) was 16.9%, the “Common TRAE: hypothyroidism” value (59 ESCC patients) was 13.6% and the “Common TRAE: leukopenia” value (59 ESCC patients) was 15.3%. For the same substance, the “Common TRAE: loss of appetite” value (59 ESCC patients) was 18.6%, the “Common TRAE: low hemoglobin counts” value (59 ESCC patients) was 10.2% and the “Common TRAE: nausea” value (59 ESCC patients) was 11.9%. For the same substance, the “Common TRAE: total bilirubin increase” value (59 ESCC patients) was 10.2%, the “Common TRAE: weight loss” value (59 ESCC patients) was 18.6% and the “Grade 3 TRAE: anemia” value (59 ESCC patients) was 2 cases. For the same substance, the “Grade 3 TRAE: anorexia” value (59 ESCC patients) was 1 case, the “Grade 3 TRAE: dysphagia” value (59 ESCC patients) was 1 case and the “Grade 3 TRAE: esophageal stenosis” value (59 ESCC patients) was 1 case. The “Grade 3 TRAE: fatigue” value (59 ESCC patients) was 1 case, the “Grade 3 TRAE: hydrocardia” value (59 ESCC patients) was 1 case and the “Grade 3 TRAE: hypercalcemia” value (59 ESCC patients) was 1 case. The “Grade 3 TRAE: hypertension” value (59 ESCC patients) was 1 case, the “Grade 3 TRAE: hyponatremia” value (59 ESCC patients) was 2 cases and the “Grade 3 TRAE: leukopenia” value (59 ESCC patients) was 1 case. For the same substance, the “Grade 3 TRAE: neck infection” value (59 ESCC patients) was 1 case, the “Grade 3 TRAE: upper respiratory infection” value (59 ESCC patients) was 1 case and the “Grade 4 TRAE: hyperuricemia” value (59 ESCC patients) was 1 case. For the same substance, the “Grade 4 TRAE: paraplegia” value (59 ESCC patients) was 1 case, the “Patients permanently discontinued due to TRAE” value (59 ESCC patients) was 23.7% and the “Patients with Grade 3 and higher TRAEs” value (59 ESCC patients) was 32.2%. For the same substance, the “Patients with Grade 4 TRAEs” value (59 ESCC patients) was 3.4%, the “Patients with dose discontinuation due to TRAE” value (59 ESCC patients) was 10.2% and the “Patients with grade 3 TRAEs” value (59 ESCC patients) was 18.6%. For the same substance, the “Safety in ESCC patients (conclusion)” value (59 ESCC patients) was “controlled safety”, the “Treatment-related death: cachexia” value (59 ESCC patients) was 1 case and the “Treatment-related death: pneumonia” value (59 ESCC patients) was 2 cases. The “Treatment-related death: unknown etiology” value (59 ESCC patients) was 3 cases, the “Patients with treatment-related adverse events (TRAEs)” value (59 ESCC patients, as of Dec. 31, 2018) was 94.9% and the Treatment-related deaths (59 ESCC patients, likely unrelated to the treatment) was “six”. For the same substance, the “ALT elevation, Level 1” value [1] was 7 (11.9) n (%), the “ALT elevation, Level 2” value [1] was 0 n (%) and the “ALT elevation, Level 3” value [1] was 0 n (%). The “ALT elevation, Level 4” value [1] was 0 n (%), the “ALT elevation, Level 5” value [1] was 0 n (%) and the “ALT elevation, Total” value [1] was 7 (11.9) n (%). For the same substance, the “AST elevation, Level 1” value [1] was 8 (13.6) n (%), the “AST elevation, Level 2” value [1] was 0 n (%) and the “AST elevation, Level 3” value [1] was 0 n (%). For the same substance, the “AST elevation, Level 4” value [1] was 0 n (%), the “AST elevation, Level 5” value [1] was 0 n (%) and the “AST elevation, Total” value [1] was 8 (13.6) n (%). For the same substance, the “Anemia, Level 1” value [1] was 6 (10.2) n (%), the “Anemia, Level 2” value [1] was 2 (3.4) n (%) and the “Anemia, Level 3” value [1] was 3 (5.1) n (%). For the same substance, the “Anemia, Level 4” value [1] was 0 n (%), the “Anemia, Level 5” value [1] was 0 n (%) and the “Anemia, Total” value [1] was 11 (18.6) n (%). For the same substance, the “Constipation, Level 1” value [1] was 5 (8.5) n (%), the “Constipation, Level 2” value [1] was 1 (1.7) n (%) and the “Constipation, Level 3” value [1] was 0 n (%). The “Constipation, Level 4” value [1] was 0 n (%), the “Constipation, Level 5” value [1] was 0 n (%) and the “Constipation, Total” value [1] was 6 (10.2) n (%). For the same substance, the “Cough, Level 1” value [1] was 6 (10.2) n (%), the “Cough, Level 2” value [1] was 4 (6.8) n (%) and the “Cough, Level 3” value [1] was 0 n (%). The “Cough, Level 4” value [1] was 0 n (%), the “Cough, Level 5” value [1] was 0 n (%) and the “Cough, Total” value [1] was 10 (16.9) n (%). For the same substance, the “Fatigue, Level 1” value [1] was 6 (10.2) n (%), the “Fatigue, Level 2” value [1] was 1 (1.7) n (%) and the “Fatigue, Level 3” value [1] was 0 n (%). The “Fatigue, Level 4” value [1] was 0 n (%), the “Fatigue, Level 5” value [1] was 0 n (%) and the “Fatigue, Total” value [1] was 7 (11.9) n (%). The “Fever, Level 1” value [1] was 8 (13.3) n (%), the “Fever, Level 2” value [1] was 2 (3.4) n (%) and the “Fever, Level 3” value [1] was 0 n (%). The “Fever, Level 4” value [1] was 0 n (%), the “Fever, Level 5” value [1] was 0 n (%) and the “Fever, Total” value [1] was 10 (16.9) n (%). For the same substance, the “Hypothyroidism, Level 1” value [1] was 5 (8.5) n (%), the “Hypothyroidism, Level 2” value [1] was 3 (5.1) n (%) and the “Hypothyroidism, Level 3” value [1] was 0 n (%). The “Hypothyroidism, Level 4” value [1] was 0 n (%), the “Hypothyroidism, Level 5” value [1] was 0 n (%) and the “Hypothyroidism, Total” value [1] was 8 (13.6) n (%). The “Leukopenia, Level 1” value [1] was 6 (10.2) n (%), the “Leukopenia, Level 2” value [1] was 3 (5.1) n (%) and the “Leukopenia, Level 3” value [1] was 0 n (%). The “Leukopenia, Level 4” value [1] was 0 n (%), the “Leukopenia, Level 5” value [1] was 0 n (%) and the “Leukopenia, Total” value [1] was 9 (15.3) n (%). For the same substance, the “Loss of appetite, Level 1” value [1] was 6 (10.2) n (%), the “Loss of appetite, Level 2” value [1] was 4 (6.8) n (%) and the “Loss of appetite, Level 3” value [1] was 1 (1.7) n (%). For the same substance, the “Loss of appetite, Level 4” value [1] was 0 n (%), the “Loss of appetite, Level 5” value [1] was 0 n (%) and the “Loss of appetite, Total” value [1] was 11 (18.6) n (%). For the same substance, the “Low hemoglobin counts, Level 1” value [1] was 3 (5.1) n (%), the “Low hemoglobin counts, Level 2” value [1] was 3 (5.1) n (%) and the “Low hemoglobin counts, Level 3” value [1] was 0 n (%). The “Low hemoglobin counts, Level 4” value [1] was 0 n (%), the “Low hemoglobin counts, Level 5” value [1] was 0 n (%) and the “Low hemoglobin counts, Total” value [1] was 6 (10.2) n (%). The “Nausea, Level 1” value [1] was 5 (8.5) n (%), the “Nausea, Level 2” value [1] was 2 (3.4) n (%) and the “Nausea, Level 3” value [1] was 0 n (%). The “Nausea, Level 4” value [1] was 0 n (%), the “Nausea, Level 5” value [1] was 0 n (%) and the “Nausea, Total” value [1] was 7 (11.9) n (%). The “Total bilirubin increase, Level 1” value [1] was 6 (10.2) n (%), the “Total bilirubin increase, Level 2” value [1] was 0 n (%) and the “Total bilirubin increase, Level 3” value [1] was 0 n (%). For the same substance, the “Total bilirubin increase, Level 4” value [1] was 0 n (%), the “Total bilirubin increase, Level 5” value [1] was 0 n (%) and the “Total bilirubin increase, Total” value [1] was 6 (10.2) n (%). For the same substance, the “Treatment-related adverse events, Level 1” value [1] was 13 (22.0) n (%), the “Treatment-related adverse events, Level 2” value [1] was 24 (40.7) n (%) and the “Treatment-related adverse events, Level 3” value [1] was 11 (18.6) n (%). For the same substance, the “Treatment-related adverse events, Level 4” value [1] was 2 (3.4) n (%), the “Treatment-related adverse events, Level 5” value [1] was 6 (10.2) n (%) and the “Treatment-related adverse events, Total” value [1] was 56 (94.9) n (%). The “Weight loss, Level 1” value [1] was 8 (13.6) n (%), the “Weight loss, Level 2” value [1] was 3 (5.1) n (%) and the “Weight loss, Level 3” value [1] was 0 n (%). For the same substance, the “Weight loss, Level 4” value [1] was 0 n (%), the “Weight loss, Level 5” value [1] was 0 n (%) and the “Weight loss, Total” value [1] was 11 (18.6) n (%).
